Here are results for 15 molecules from patent US12448423 (Xencor, dated 2025).

Changes are numbered by the printed parent chain. Numbers in names are those of the source.

T1: HIS-tagged human NKG2D (human, UniProt P26718 73-216, limits assumed)
T1 construct: Captured on HIS1K biosensors; not shown: HIS tag
T1 sequence (looked up): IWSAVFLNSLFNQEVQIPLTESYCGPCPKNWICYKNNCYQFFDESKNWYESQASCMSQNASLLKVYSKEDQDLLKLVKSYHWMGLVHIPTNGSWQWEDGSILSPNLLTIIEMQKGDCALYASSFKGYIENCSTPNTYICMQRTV

B1: XENP27596 (antibody, human IgG1, kappa, V domains shown)
VH: QVQLVQSGAEVKKPGASVKVSCKASGYTFTNYWMHWVRQAPGQGLEWMGEIDPSDIYTNYAQKFQGRVTMTRDTSTSTVYMELSSLRSEDTAVYYCARGIYDGYYVYGMDYWGQGTTVTVSS
VL: YIQMTQSPSSLSASVGDRVTITCRSSQDISNYLNWYQQKPGKAPKLLIYYTSRLHSGVPSRFSGSGSGTDFTFTISSLQPEDIATYYCQQGKTLPRTFGGGTKVEIKR
notes: bivalent anti-NKG2D mAb, IgG1 with ablation variants; also called mAb D[NKG2D]_H1L1_IgG1_PVA_/S267K
B2: XENP27591 (antibody, human IgG1, kappa, V domains shown)
VH: QVQLQQSGPELVRPGASVKLSCKASGYTFTSYWMNWVQQRPEQGLEWIGRIDPYDSETHYNQKFKDKAILTVDKSASTAYMQLSSLTSEDSAVYYCAKMGDYSFDYWGQGTTVTVSS
VL: DIQLTQSPASLSASVGETVTITCRASGNIHNYLAWYQQKQGKSPQVLVYNAKTLADGVPSRFSGSGSGTQYSLKINSLQPEDFGSYYCQHFWSTTWTFGGGTKLEIKR
notes: bivalent anti-NKG2D mAb, IgG1 with ablation variants; also called 11B2D10[NKG2D]_H0L0_IgG1_PVA_/S267K
B3: XENP27598 (antibody, human IgG1, kappa, V domains shown)
VH: QVQLVQSGAEVKKPGASVKVSCKASGYTFTSYWMNWVRQAPGQGLEWMGRIDPYDSETHYNQKFQGRVTMTVDKSTSTAYMELSSLRSEDTAVYYCAKMGDYSFDYWGQGTLVTVSS
VL: DIQLTQSPSSLSASVGDRVTITCRASGNIHNYLAWYQQKPGKSPKVLVYNAKTLADGVPSRFSGSGSGTDYTLTISSLQPEDFATYYCQHFWSTTWTFGGGTKVEIKR
notes: humanized bivalent anti-NKG2D mAb, IgG1 with ablation variants; also called mAb B[NKG2D]_H1L1_IgG1_PVA_/S267K
B4: XENP27601 (antibody, human IgG1, kappa, V domains shown)
VH: EVQLVQSGAEVKKPGESLRISCKASGYTFTSYWMNWVRQMPGKGLEWMGRIDPYDSETHYNPSFQGHVTISVDKSISTAYLQWSSLKASDTAMYYCAKMGDYSFDYWGQGTLVTVSS
VL: B3 VL
notes: humanized bivalent anti-NKG2D mAb, IgG1 with ablation variants; also called mAb B[NKG2D]_H2L1_IgG1_PVA_/S267K
B5: XENP27600 (antibody, human IgG1, kappa, V domains shown)
VH: B3 VH
VL: DIQLTQSPDSLAVSLGERATINCKASGNIHNYLAWYQQKPGQSPKVLVYNAKTLADGVPSRFSGSGSGTDYTLTISSLQAEDVAVYYCQHFWSTTWTFGGGTKVEIKR
notes: humanized bivalent anti-NKG2D mAb, IgG1 with ablation variants; also called mAb B[NKG2D]_H1L2_IgG1_PVA_/S267K
B6: XENP27599 (antibody, human IgG1, kappa, V domains shown)
VH: B3 VH
VL: B3 VL with T95P
notes: humanized bivalent anti-NKG2D mAb, IgG1 with ablation variants; also called mAb B[NKG2D]_H1_L1.1_IgG1_PVA_/S267K
B7: XENP27602 (antibody, human IgG1, kappa, V domains shown)
VH: B4 VH
VL: B3 VL with T95P
notes: humanized bivalent anti-NKG2D mAb, IgG1 with ablation variants; also called mAb B[NKG2D]_H2_L1.1_IgG1_PVA_/S267K
B8: XENP27614 (antibody, human IgG1, kappa, V domains shown)
VH: QVQLQESGPGLVKPSETLSLTCTVSGFSLTSYGVHWIRQPPGKGLEWIGVIWAGGSTNYNPSLKSRVTISKDNSKSQVSLKLSSVTAADTAVYYCARGGYEGAAWFGYWGQGTLVTVSS
VL: DIQLTQSPATLSLSPGERATLSCRASSSVSYMHWYQQKPGQSPRPLIYATSNLASGVPARFSGSGSGTDYTLTISSLEPEDFAVYYCQQWNSNPLTFGAGTKVEIKR
notes: humanized bivalent anti-NKG2D mAb, IgG1 with ablation variants; also called mAb A[NKG2D]_H2L2_IgG1_PVA_/S267K
B9: XENP27612 (antibody, human IgG1, kappa, V domains shown)
VH: QVQLVQSGAEVKKPGASVKVSCKVSGFSLTSYGVHWIRQAPGQGLEWMGVIWAGGSTNYNSKFQGRVTMTKDNSKSTVYMELSSLRSEDTAVYYCARGGYEGAAWFGYWGQGTLVTVSS
VL: B8 VL
notes: humanized bivalent anti-NKG2D mAb, IgG1 with ablation variants; also called mAb A[NKG2D]_H1L2_IgG1_PVA_/S267K
B10: XENP27611 (antibody, human IgG1, kappa, V domains shown)
VH: B9 VH
VL: DIQLTQSPSSLSASVGDRVTITCRASSSVSYMHWYQQKPGKSPKPLIYATSNLASGVPARFSGSGSGTDYTLTISSLQPEDFATYYCQQWNSNPLTFGAGTKVEIKR
notes: humanized bivalent anti-NKG2D mAb, IgG1 with ablation variants; also called mAb A[NKG2D]_H1L1_IgG1_PVA_/S267K
B11: XENP27613 (antibody, human IgG1, kappa, V domains shown)
VH: B8 VH
VL: B10 VL
notes: humanized bivalent anti-NKG2D mAb, IgG1 with ablation variants; also called mAb A[NKG2D]_H2L1_IgG1_PVA_/S267K
B12: XENP27593 (antibody, human IgG1, kappa, V domains shown)
VH: QVQLQESGPGLVAPSQSLSITCTVSGFSLTSYGVHWIRQPPGKGLEWLGVIWAGGSTNYNSALMSRLSISKDNSKSQVFLKMNSLQIDDTAMYYCARGGYEGAAWFGYWGQGTTVTVSS
VL: DIQLTQSPAILSASPGEKVTMTCRASSSVSYMHWYQQKPGSSPKPWIYATSNLASGVPARFSGSGSGTSYSLTISRVEAEDAATYYCQQWNSNPLTFGAGTKLEIKR
notes: bivalent anti-NKG2D mAb, IgG1 with ablation variants; also called 6H7E7[NKG2D]_H0L0_IgG1_PVA_/S267K
B13: XENP27597 (antibody, human IgG1, lambda, V domains shown)
VH: EVQLVESGGGVVQPGGSLRLSCAASGFTFSSYGMHWVRQAPGKGLEWVAFIRYDGSNKYYADSVKGRFTISRDNSKNTKYLQMNSLRAEDTAVYYCAKDRFGYYLDYWGQGTLVTVSS
VL: QPVLTQPSSVSVAPGETARIPCGGDDIETKSVHWYQQKPGQAPVLVIYDDDDRPSGIPERFFGSNSGNTATLSISRVEAGDEADYYCQVWDDNNDEWVFGGGTQLTVLG
notes: bivalent anti-NKG2D mAb, IgG1 with ablation variants; also called KYK-1.0[NKG2D]_H1L1_IgG1_PVA_/S267K
B14: XENP27592 (antibody, human IgG1, kappa, V domains shown)
VH: QVQLQQSGPGLVQPSQSLSITCTVSGFSLTIYGVHWVRQSPGKGLEWLGVIWSGGSTDYNAAFISRLSISKDNSKRQVFFKMSSLQANDTAIYYCSRKSHDGYYGVMDYWGQGTTVTVSS
VL: DIQLTQSPAILSVSPGERVSFSCRASQSIGTSIHWYQQRTNGSPRLLIKYASESISGIPSRFSGSGSGTDFTLSINGVESEDIADYYCQQSNTWPLTFGAGTKLEIKR
notes: bivalent anti-NKG2D mAb, IgG1 with ablation variants; also called 6E5A7[NKG2D]_H0L0_IgG1_PVA_/S267K
B15: XENP27594 (antibody, V domains shown)
VH: EVQLVESGGGLVKPGGSLRLSCAASGFTFSSYSMNWVRQAPGKGLEWVSSITSSSSYIYYADSVKGRFTISRDNAKNSLYLQMNSLRAEDTAVYYCARDRRYFDWFPLDYRGQGTLVTVSS
VL: DIQMTQSPSSLSASVGDRVTITCRASQGISSWLAWYQQKPEKAPKSLIYAASSLQSGVPSRFSGSGSGTDFTLTISSLQPEDFATYYCQQYNGYPYTFGQGTKLEIKR
notes: bivalent anti-NKG2D mAb, IgG1 with ablation variants; also called mAb E[NKG2D]_H1L1_IgG1_PVA_/S267K

For the assay, the target named is T1, HIS-tagged human NKG2D. Nature of the assay: Octet (BLI): His-tagged human NKG2D captured on HIS1K biosensors, dipped into 100 nM bivalent mAb.
As a reminder, the koff is a measure of how fast the partners let go of each other. A low value points to a long-lived complex. By kon is commonly meant a measure of how fast the partners come together. A higher kon goes with fast association. The molecule B1 had a Kd of at most 0.001 nM, a koff of at most 1e-07 s⁻¹ and a kon of 698000 M⁻¹ s⁻¹.

Molecule B2 registered a Kd of 0.547 nM, a koff of 0.000792 s⁻¹ and a kon of 1.45e+06 M⁻¹ s⁻¹.

B3: the Kd is 0.679 nM, the off-rate (koff) amounted to 0.000746 s⁻¹ and the kon worked out at 1.1e+06 M⁻¹ s⁻¹.

Molecule B4 had a Kd of 0.894 nM, a koff of 0.0011 s⁻¹ and a kon of 1.23e+06 M⁻¹ s⁻¹.

In turn, B5 returned a Kd of 0.595 nM, a koff of 0.000666 s⁻¹ and a kon of 1.12e+06 M⁻¹ s⁻¹.

On to B6, for which the Kd amounted to 3.5 nM, the koff came to 0.00169 s⁻¹ and the kon was 482000 M⁻¹ s⁻¹.

Take B7: the Kd was 1.95 nM, the koff was 0.00144 s⁻¹ and the kon came out at 740000 M⁻¹ s⁻¹.

Turning to B8, the Kd was at most 0.001 nM, the koff is at most 1e-07 s⁻¹ and the kon is 200000 M⁻¹ s⁻¹.

On to B9, for which the Kd was at most 0.001 nM, the koff was at most 1e-07 s⁻¹ and the kon is 224000 M⁻¹ s⁻¹.

B10 yielded a Kd of at most 0.001 nM, a koff of at most 1e-07 s⁻¹ and a kon of 228000 M⁻¹ s⁻¹.

The molecule B11 came in with a Kd of at most 0.001 nM, a koff of at most 1e-07 s⁻¹ and a kon of 254000 M⁻¹ s⁻¹.

With B12, the Kd was at most 0.001 nM, the koff was at most 1e-07 s⁻¹ and the kon was 231000 M⁻¹ s⁻¹.

B13 returned a Kd of 0.613 nM, a koff of 0.00113 s⁻¹ and a kon of 1.85e+06 M⁻¹ s⁻¹.

Regarding B14, the Kd was at most 0.001 nM, the koff was at most 1e-07 s⁻¹ and the kon was found to be 489000 M⁻¹ s⁻¹.

In turn, B15 had a Kd of 0.343 nM, a koff of 0.000387 s⁻¹ and a kon of 1.13e+06 M⁻¹ s⁻¹.
